Test results as given in patent publication US20260234242A1 (HAINAN SIMCERE ZAIMING PHARMACEUTICAL, published 2026).

Tests used:
[1] = target: T1, his-tagged human CDH6 extracellular region protein (hCDH6 ECD-his) (human, UniProt P55285 19-615); test: ELISA, coated antigen; ELISA, hCDH6 ECD-his coated at 1 µg/mL, antibody in solution
T1 construct: also called Human CDH6-his; hCDH6-his; not shown: his tag
T1 sequence: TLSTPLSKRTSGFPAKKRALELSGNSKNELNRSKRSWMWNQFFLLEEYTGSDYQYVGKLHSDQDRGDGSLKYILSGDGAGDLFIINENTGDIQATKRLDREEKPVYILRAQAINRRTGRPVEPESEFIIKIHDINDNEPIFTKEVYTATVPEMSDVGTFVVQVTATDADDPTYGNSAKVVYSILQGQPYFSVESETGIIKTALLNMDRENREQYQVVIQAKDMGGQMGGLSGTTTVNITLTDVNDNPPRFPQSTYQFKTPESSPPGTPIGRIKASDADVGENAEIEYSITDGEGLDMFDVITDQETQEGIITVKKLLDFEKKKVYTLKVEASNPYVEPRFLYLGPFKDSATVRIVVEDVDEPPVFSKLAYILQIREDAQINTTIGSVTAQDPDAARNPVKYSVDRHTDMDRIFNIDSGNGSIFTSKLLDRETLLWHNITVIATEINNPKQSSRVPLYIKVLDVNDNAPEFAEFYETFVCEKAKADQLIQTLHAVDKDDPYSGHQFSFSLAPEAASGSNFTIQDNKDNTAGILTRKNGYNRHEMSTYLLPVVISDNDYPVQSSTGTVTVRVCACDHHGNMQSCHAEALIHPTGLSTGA
Method: Human CDH6 protein (hCDH6 ECD-his, conventionally synthesized), monkey CDH6 protein (cynoCDH6 ECD-his, conventionally synthesized; the cynoCDH6 ECD sequence was derived from Uniprot #A0A2K5TW62 (19-615)), and murine CDH6 protein (mCDH6 ECD-his, conventionally synthesized; the mCDH6 ECD sequence was derived from Uniprot #P97326 (19-615)) were diluted with PBS to a final concentration of 1 μg/mL, and added to a 96-well ELISA plate at 100 μL/well. The plate was incubated at 4° C. overnight. The next day, the plate was washed 3 times with a plate washing solution (PBS+0.01% (v/v) Tween 20), and a blocking buffer (PBS+0.01% (v/v) Tween 20+2% (w/w) BSA) was added for blocking at room temperature for 2 h. The blocking buffer was discarded, and the plate was washed 3 times. The chimeric antibodies were diluted with 1% BSA+PBS (purchased from Cytiva, Cat. No. SH30264.01) and added to the 96-well plate at 50 μL/well. After incubation at 37° C. for 2 h, the plate was washed 3 times with a plate washing solution. […] The plate was incubated at 37° C. for 1 h and then washed 5 times with a plate washing solution. A TMB substrate (purchased from Seracare, Cat. No. 5120-0077) was added at 50 μL/well and incubated at room temperature for 10 min, then a stop solution (1.0 N HCl) was added at 50 μL/well. OD450 nm values were read using a microplate reader (Biotek). Analysis was performed by the GraphPad Prism software, data were fitted, and EC50 values were calculated. The chimeric antibodies tested all had strong binding to the human CDH6 protein, the monkey CDH6 protein, and the murine CDH6 protein.

[2] = target: T2, human CDH6 on tumor cells (OVCAR3 cells, PA-1 cells) (human, UniProt P55285 54-790); test: FACS, OVCAR3 cells
T2 sequence: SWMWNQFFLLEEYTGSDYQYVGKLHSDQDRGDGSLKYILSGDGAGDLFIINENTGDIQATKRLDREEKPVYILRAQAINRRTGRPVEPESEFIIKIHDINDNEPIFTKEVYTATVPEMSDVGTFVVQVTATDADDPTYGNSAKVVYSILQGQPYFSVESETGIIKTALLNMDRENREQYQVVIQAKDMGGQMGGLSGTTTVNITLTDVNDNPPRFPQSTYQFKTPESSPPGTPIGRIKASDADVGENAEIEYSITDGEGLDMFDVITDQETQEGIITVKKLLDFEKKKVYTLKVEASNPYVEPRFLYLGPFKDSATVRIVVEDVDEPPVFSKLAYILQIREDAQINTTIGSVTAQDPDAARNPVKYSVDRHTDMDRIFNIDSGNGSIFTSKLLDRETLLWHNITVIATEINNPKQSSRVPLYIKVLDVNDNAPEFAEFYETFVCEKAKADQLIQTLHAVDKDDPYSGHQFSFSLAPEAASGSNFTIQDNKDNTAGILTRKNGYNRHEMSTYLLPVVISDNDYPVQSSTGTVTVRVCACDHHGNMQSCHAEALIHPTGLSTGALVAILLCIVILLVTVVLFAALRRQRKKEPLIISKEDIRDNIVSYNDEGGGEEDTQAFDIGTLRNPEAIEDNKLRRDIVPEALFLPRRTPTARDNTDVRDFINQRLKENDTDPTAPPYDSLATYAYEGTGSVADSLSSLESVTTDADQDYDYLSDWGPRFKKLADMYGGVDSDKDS
Method: (§1) OVCAR3 cells with high expression of CDH6 and PA-1 cells with moderate expression of CDH6 were used to detect the binding activity of the antibodies to the cells. […] The cells were washed once with PBS, counted, resuspended to 2×10⁶ cells/mL in an FACS buffer (PBS+2% FBS), and then added to a 96-well plate at 50 μL/well. The chimeric antibodies were diluted with FACS buffer (PBS+2% FBS) and added to the 96-well plate at 50 μL/well, and the plate was incubated at 4° C. for 1 h. […] The dilution was added to the 96-well plate at 50 μL/well, and the plate was incubated at 4° C. for 1 h. After the plates were centrifuged and washed 2 times with PBS, the cells were resuspended in an FACS buffer. The mean fluorescence intensity (MFI) was measured using FACS Canton II (BD). Analysis was performed by the GraphPad Prism software, data were fitted, and EC50 values were calculated. The chimeric antibodies tested had strong binding to both OVCAR3 cells and PA-1 cells.

[3] = target: T2, human CDH6 on tumor cells (OVCAR3 …); test: FACS, PA-1 cells
Method: as §1

Row | Binder | EC50 [1] | EC50 [2] | Max MFI [2] | EC50 [3] | Max MFI [3]
1 | CHI-CDH6-4 (antibody, human IgG1, kappa, V domains shown, also called CH1-CDH6-4; chimeric antibody of murine CDH6-4) VH: QVQLQQSGPELVKPGASVKISCKASGYAFSNFWMNWVKQRPGKGLEWIGWIYPGDGDTNYNGKFKDKATLTADKSSSTAYIQLSSLTSEDSAVYFCARLYDAWGFFDYWGQGTTLTVSS VL: QIVLTQSPAIMSASPGQKVTITCSASSSVNYMHWYQQKLGSSPKLWIYDKSKLAPGVPARFSGSGSGTSYSLTISSMEAEDAASYFCHQWSSYPPMTFGGGTKLEIKR | 0.053 nM | 3.17 nM | 14000 MFI | 2.48 nM | 3990 MFI
2 | CHI-CDH6-5 (antibody, human IgG1, kappa, V domains shown, also called CH1-CDH6-5; chimeric antibody of murine CDH6-5) VH: QVQLQQSGAELVRPGTSVKMSCKAAEYTFTNYWIGWVKQRPGHGLEWIGDLYPGGDHANYNEKFEGKATLTADTSSSTAYMQLSSLTSEDSAIYYCARGMLTTGFDSWGQGTTLTVSS VL: DIVMSQSPSSLAVSAGEKVTMSCKSSQSLFNSRTRKNYLAWYQQKPGQSPKLLIYWASTRESGVPDRFTGSGSGTDFTLTISSVQAEDLAVYYCKQSYYLRTFGGGTKLEIKR | 0.043 nM | 0.57 nM | 12700 MFI | 0.49 nM | 4560 MFI
3 | CHI-CDH6-7 (antibody, human IgG1, kappa, V domains shown, also called CH1-CDH6-7; chimeric antibody of murine CDH6-7) VH: EVKLVESGGGLVKPGGSLKVSCAASGFTFSDHGMAWVRQAPGKGPEWVAFISNLAYSIYYADTVTGRFTISRENAKNTLYLEMSSLRSEDTAMYYCARVYVKWYFDVWGAGTTVTVSS VL: DIQMTQSPASLSASVGETVTITCRASENIDSYLAWYQQKQGKSPQLLVFAATLLADGVPSRFSGSGSGTQYSLKINSLQSEDVARYYCQHYYSTPLTFGAGTKLELKR | 0.488 nM | 5.57 nM | 12000 MFI | 7.57 nM | 2470 MFI
4 | CHI-CDH6-12 (antibody, human IgG1, kappa, V domains shown, also called CH1-CDH6-12; chimeric antibody of murine CDH6-12) VH: EVNLVESGGGLVQPGDSLTLSCSASGFTFTDYYMSWVRQFPGKALEWLALIRNKANSYTTEYSASVKGRFTISRDNSQSILYLQMNALRAEDSATYYCARDSYYSHDGFAYWGQGTLVTVSA VL: DIVLTQSPASLAVSLGQRATISCRASKSVSTSSYTYMHWYQQKPGQPPKLLIKFASYLESGVPARFSGSGSGTDFTLNIHPVEEEDAATYYCQHSREFPFTFGTGTKLEIKR | 0.105 nM | 2.22 nM | 12500 MFI | 2.27 nM | 3150 MFI
5 | DS-H01L02 (antibody, human IgG1, kappa, V domains shown, Positive control, variable regions from WO2018212136A1; also called positive control anti-human CDH6 antibody) VH: EVQLVQSGAEVKKPGASVKVSCKASGYTFTRNFMHWVRQAPGQGLEWMGWIYPGDGETEYAQKFQGRVTITADTSTSTAYMELSSLRSEDTAVYYCARGVYGGFAGGYFDFWGQGTLVTVSS VL: DIQMTQSPSSLSASVGDRVTITCKASQNIYKNLAWYQQKPGKAPKLLIYDANTLQTGVPSRFSGSGSGSDFTLTISSLQPEDFATYFCQQYYSGWAFGQGTKVEIKR | 0.168 nM | 0.8 nM | 9730 MFI | 1.09 nM | 1880 MFI
